Data as given in the supplement of paper PMC12042874.
± gives the uncertainty stated by the source.

Experiment: amyloid nucleation score (Sup35N fusion, yeast selection) (log enrichment); library NNK1; higher = more nucleation; inactive = no reads after selection
Summary of the method: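 Yeast lacking psi expressed peptides of 20 random codons fused to Sup35N, received 100 μM copper sulfate for 24 hours, and were then grown for 7 days at 30°C on medium lacking adenine and uracil. Illumina sequencing of input and output plasmid inserts provided the reads. Nucleation scores are DiMSum log enrichments of output over input, centred on the mode of non-aggregating sequences. Any sequence with under 100 input reads was excluded.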
With VINWLCWVYLECLWYYWMVG the amyloid nucleation score was “inactive”.
Work on VIQRYRSVPI yielded an amyloid nucleation score of 0.604 ± 0.67.
Substance VISRSVDYTPM has an amyloid nucleation score of -0.599 ± 0.46.
For VITNVRL, the amyloid nucleation score was -0.089 ± 0.35.
Work on VIVSSWLLTCTYSRYMRY yielded an amyloid nucleation score of -1.5 ± 2.7.
VKIKEKFKA showed an amyloid nucleation score of -0.189 ± 0.42.
VKKRGDQLSLCWCLPRDLLL gave an amyloid nucleation score of 0.612 ± 0.59.
With VKLSMLWLMARLWGRLTCSG the amyloid nucleation score was -0.293 ± 0.47.
VKLSYGWVLSGAELTEYVTM showed an amyloid nucleation score of -0.782 ± 0.54.
With VKNRNKGTYRCWVVYITGKS the amyloid nucleation score was -0.205 ± 0.28.
In the case of VKRKGAKISWQGAILRASVV, the amyloid nucleation score is reported as -0.963 ± 0.7.
For VKSWKLERRMRVAMLDTLVI, the amyloid nucleation score was 0.367 ± 1.2.
VKSWVPTDVGFEQQSGREVL gave an amyloid nucleation score of 0.093 ± 0.25.
With VLAPF the amyloid nucleation score was “inactive”.
VLAPFVLPC showed an amyloid nucleation score of -0.406 ± 0.41.
Substance VLAVCKVYASWYFTFWMF has an amyloid nucleation score of 4 ± 0.088.
Substance VLAVLVFSGCGGVRGTSNLT has an amyloid nucleation score of 1.54 ± 0.14.
With VLCGNPLFRFVLGWRFCVWG the amyloid nucleation score was 0.335 ± 1.1.
With VLCSRIYDHAWAKG the amyloid nucleation score was “inactive”.
With VLCVSRRSAIYTWGSSLYCD the amyloid nucleation score was -0.691 ± 1.4.
Substance VLDEYFCNLC has an amyloid nucleation score of 5.989 ± 0.058.
VLEYKD showed an amyloid nucleation score of -1.97 ± 2.4.
Substance VLFFKVIIYVALRMVLMEKD has an amyloid nucleation score of -1.18 ± 1.
Substance VLFGS has an amyloid nucleation score of -0.462 ± 0.93.
With VLGDLVRFRAYASRAIMLSL the amyloid nucleation score was -0.11 ± 0.79.
For VLIDMSGSCSKAMHAIRQDR, the amyloid nucleation score was 0.218 ± 0.73.
VLKLLVVRFVPLPSSFYTCE gave an amyloid nucleation score of 0.193 ± 0.92.
Substance VLKVCTWIKYLQSV has an amyloid nucleation score of -0.279 ± 0.33.
In the case of VLLFNHYFLRAAVIIAWVGW, the amyloid nucleation score is reported as -0.618 ± 1.6.
For VLLIRYYFMKFDLSL, the amyloid nucleation score was 0.359 ± 0.47.
Work on VLMCDGFHALRKL yielded an amyloid nucleation score of 1.97 ± 0.36.
VLNFEGMSRAVFLRLISIQQ showed an amyloid nucleation score of -0.837 ± 0.9.
VLNNLDLCSIRIVSKVSLFM gave an amyloid nucleation score of 6.88 ± 0.085.
In the case of VLRCVISLQV, the amyloid nucleation score is reported as “inactive”.
With VLRIDSPLSMILFEVVRCEQ the amyloid nucleation score was -0.322 ± 0.31.
With VLSKFIVSDLMAISQNKLHR the amyloid nucleation score was “inactive”.
Substance VLTKWGIWGGQWCTVLSRGR has an amyloid nucleation score of 0.211 ± 0.37.
Work on VLTVRLTMLDCHLAAFSSNA yielded an amyloid nucleation score of 1.66 ± 0.16.
For VLTWFDCYLICLYTRTSLRI, the amyloid nucleation score was 0.365 ± 0.41.
Work on VLVDGSRSWGG yielded an amyloid nucleation score of 0.952 ± 0.52.
With VLVDKSDRVRGLS the amyloid nucleation score was -0.101 ± 0.3.
Substance VLVFIFDSTVSI has an amyloid nucleation score of 8.236 ± 0.046.
VLYAP gave an amyloid nucleation score of -0.33 ± 1.7.
With VLYELSKMGYRVLLYTHPDR the amyloid nucleation score was 0.125 ± 0.46.
For VMAGHFCYWCRCRVARQLSW, the amyloid nucleation score was -0.69 ± 0.77.
Work on VMFRLTGELGDMKCGVLSDA yielded an amyloid nucleation score of 1.47 ± 0.38.
With VMGLT the amyloid nucleation score was -0.242 ± 1.1.
With VMGSGLRMGLAESCVENGAS the amyloid nucleation score was -0.021 ± 0.31.
VMLFSDVFWALMLHFYDPAF gave an amyloid nucleation score of -1.01 ± 0.61.
VMMYLFYFHTRMCMSHLCYA gave an amyloid nucleation score of -0.891 ± 1.6.
For VMPYYRRSQNHDSFNFGDVS, the amyloid nucleation score was 0.552 ± 0.52.
For VMSFILYLSMLCGARDSQRH, the amyloid nucleation score was 2.89 ± 0.14.
Work on VMTFLISLSWYSL yielded an amyloid nucleation score of 0.328 ± 0.23.
Substance VMWRFKSVTCI has an amyloid nucleation score of -0.393 ± 0.33.
VNCFSTLSMLWMSVQTEPRV showed an amyloid nucleation score of 1.04 ± 0.28.
Substance VNCGSYVDLDVGVIGPR has an amyloid nucleation score of 0.255 ± 0.84.
In the case of VNIKLLVVRAVFVILKDMGK, the amyloid nucleation score is reported as 2.16 ± 0.12.
With VNLGVRAGGLCRHAEKGDMT the amyloid nucleation score was -0.364 ± 0.53.
VNLHWGSDEAVSIARDIYTW showed an amyloid nucleation score of 0.533 ± 0.29.
VNMSKHYRRGWGDDVATGVR gave an amyloid nucleation score of 0.693 ± 0.49.
Work on VNPNGGEDNVLGCPIRSWQW yielded an amyloid nucleation score of -0.031 ± 1.2.
Work on VNSFCR yielded an amyloid nucleation score of 0.587 ± 1.1.
VNSIESCANFH showed an amyloid nucleation score of -0.198 ± 1.7.
With VNSRCLSAYTK the amyloid nucleation score was 0.46 ± 0.34.
Work on VNVNNLRRTYNIRWVVGPGL yielded an amyloid nucleation score of 5.57 ± 0.064.
Work on VNWIVVVFTNMLFLTKGRNA yielded an amyloid nucleation score of 0.308 ± 0.27.
With VNYTTSQSRRDFPSNRSQSG the amyloid nucleation score was 0.715 ± 0.83.
VPLVVNRDARH showed an amyloid nucleation score of 1.26 ± 0.59.
With VPSNLQGSPFPQLGMSALVH the amyloid nucleation score was 0.149 ± 0.62.
Work on VPTMEMTVAYGSWTCSERCE yielded an amyloid nucleation score of -0.468 ± 0.44.
With VPWLKGAVDPVTRFGV the amyloid nucleation score was -0.016 ± 0.78.
Work on VQRCWYGR yielded an amyloid nucleation score of -1.94 ± 2.7.
In the case of VRAELFLTLPKGTQADALAV, the amyloid nucleation score is reported as -0.166 ± 0.67.
For VRALND, the amyloid nucleation score was -0.581 ± 0.3.
VRCVICCFCIWLKAWWDYKR gave an amyloid nucleation score of 1.47 ± 0.45.
Work on VRDGDTMILGVYRNIWGTNV yielded an amyloid nucleation score of 0.429 ± 0.24.
Substance VRFSVLKVTVLTKARNEVST has an amyloid nucleation score of 1.7 ± 0.24.
With VRGSVGANGQHVPEDMTVRM the amyloid nucleation score was 0.786 ± 0.44.
For VRIAPHKGPDRTSGVLLGRM, the amyloid nucleation score was 0.838 ± 0.75.
VRKISIFFMNSWVWLSSRFH showed an amyloid nucleation score of 0.069 ± 0.49.
Work on VRKSSVASLECQNA yielded an amyloid nucleation score of 0.335 ± 0.28.
Work on VRLGMRQMCYQKNRTCQVYF yielded an amyloid nucleation score of -0.173 ± 0.62.
In the case of VRLVVQWEKVKDCLIVWD, the amyloid nucleation score is reported as 1.85 ± 0.12.
VRMGQDRHIISTKLTVSREL gave an amyloid nucleation score of -1.22 ± 2.7.
VRNDLNTH showed an amyloid nucleation score of 0.377 ± 0.19.
Substance VRNDQRLLCRRFVKFSDFQS has an amyloid nucleation score of -0.62 ± 0.95.
